How the values were obtained:
[1] = molecular target: plasminogen (purified; Molecular Innovations in the plasmin activity reactions); assay: cell-based or functional assay
[2] = molecular target: mouse plasminogen (endogenous, in descending aorta protein of LDLR-/- ApoB48-deficient mice) (mouse) (UniProt P20918); assay: co-immunoprecipitation from pooled mouse descending aorta protein, densitometry of the western blot
Sequence of UniProt P20918 (P20918 20-812 limits assumed): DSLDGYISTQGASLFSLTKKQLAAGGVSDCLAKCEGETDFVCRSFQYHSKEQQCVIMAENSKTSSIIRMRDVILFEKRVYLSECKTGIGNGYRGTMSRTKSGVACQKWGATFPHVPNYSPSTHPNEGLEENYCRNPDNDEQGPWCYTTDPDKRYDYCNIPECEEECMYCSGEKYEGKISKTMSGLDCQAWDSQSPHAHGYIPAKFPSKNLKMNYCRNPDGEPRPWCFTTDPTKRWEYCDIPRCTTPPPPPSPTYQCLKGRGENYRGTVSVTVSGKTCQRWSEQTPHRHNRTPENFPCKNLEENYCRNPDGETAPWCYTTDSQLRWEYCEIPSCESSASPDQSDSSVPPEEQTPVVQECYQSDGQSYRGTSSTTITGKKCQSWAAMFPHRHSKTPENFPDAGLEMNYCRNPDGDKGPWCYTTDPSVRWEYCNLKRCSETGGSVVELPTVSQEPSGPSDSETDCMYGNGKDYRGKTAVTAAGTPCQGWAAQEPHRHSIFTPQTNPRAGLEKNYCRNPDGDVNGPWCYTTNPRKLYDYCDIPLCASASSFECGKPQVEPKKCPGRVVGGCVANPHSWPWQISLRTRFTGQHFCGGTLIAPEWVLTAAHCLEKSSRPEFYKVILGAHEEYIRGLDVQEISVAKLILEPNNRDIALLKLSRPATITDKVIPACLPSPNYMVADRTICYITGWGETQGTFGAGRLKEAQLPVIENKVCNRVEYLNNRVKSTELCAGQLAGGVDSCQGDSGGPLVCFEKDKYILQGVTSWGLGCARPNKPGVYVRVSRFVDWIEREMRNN

Question: “glycosylated human PAI-1 (Molecular Innovations) (from UniProt P05121 24-402)” was tested. Which plasmin activity (chromozym assay); 50 nM PAI-1 pre-bound to plasminogen 1 h at 37 C before tPA was added (late) [1] did it give?
Answer: The plasmin activity (chromozym assay); 50 nM PAI-1 pre-bound to plasminogen 1 h at 37 C before tPA was added (late) was 0.00138 U/ml.

Question: For “mouse PAI-1 (endogenous, in descending aorta protein of LDLR-/- ApoB48-deficient mice) (from UniProt P22777 23-402)”, which fold more plasminogen complexed with PAI-1 (rPAI-123-treated against saline-treated mice) [2] is on record?
Answer: Its fold more plasminogen complexed with PAI-1 (rPAI-123-treated against saline-treated mice) is 1.6 fold.
